# B1: Mitochondrial dynamics protein MID51 (Mus musculus), Q8BGV8 (parent)
# chain: MAGAGERKGKKDDNGIGTAIDFVLSNARLVLGVGGAAMLGIATLAVKRMYDRAISAPTSPTRLSHSGKRSWEEPNWMGSPRLLNKDMKAGLSRSLQTLPTDSSAFDTDTFCPPRPKPLARRGQVDLKKSRLRMSLQEKLLSYYRNRAAIPAGEQARAKQAAVDICAELRSFLRAKLPDMPLRDMYLSGSLYDDLQVVTADHIQLIVPLVLEQNLWSCIPGEDTIMNVPGFFLVRRENPEYFPRGSSYWDRCVVGGYLSPKTVADTFEKVVAGSINWPAIGSLLDYVIRPAPPPEALTLEVQYEKDKHLVIDFLPSVTLGDTVLVARPHRLAQYDNLWRLSLRPAETARLRALDQADSGCRSLCLKILKAICKSTPALGHLTASQLTNVILHLAQEEADWSPDMLADRFLQALRGLISYLEAGVLPSALNPKVNLFAELTPQEIDELGYTLYCSLSEPEVLLQT
# Variants of: B1
# Settings: with Dnm1l
row,Variant,effect of a mutation on the interaction
1,R234A;R235A;N237A,disrupting interaction strength
2,V253E;G254E;G255E,disrupting interaction strength
3,E239A;Y240A;R243A,decreasing interaction strength

# Variants of: B1
# Settings: with Dnm1l
# Remark: another data set of the same source
row,Variant,effect of a mutation on the interaction
1,E239A;Y240A;R243A,disrupting interaction strength

# Source: IntAct's records for PubMed 24508339
